Legend:
[1] = biological target: PKA (RIIα), regulatory subunit of type II cAMP-dependent protein kinase, residues 2-44; assay: ITC
FLAG-tagged PKA (RIIα) = FLAG-tagged PKA (RIIα) (UniProt P13861); assay: co-IP
[2] = biological target: PKA (RIIα) (Homo sapiens) (UniProt P13861); settings: cited from earlier work
PKA (RIα) (Homo sapiens) = PKA (RIα) (Homo sapiens) (UniProt P10644); settings: cited from earlier work
Chain of PKA (RIα) (Homo sapiens) (P10644 whole entry): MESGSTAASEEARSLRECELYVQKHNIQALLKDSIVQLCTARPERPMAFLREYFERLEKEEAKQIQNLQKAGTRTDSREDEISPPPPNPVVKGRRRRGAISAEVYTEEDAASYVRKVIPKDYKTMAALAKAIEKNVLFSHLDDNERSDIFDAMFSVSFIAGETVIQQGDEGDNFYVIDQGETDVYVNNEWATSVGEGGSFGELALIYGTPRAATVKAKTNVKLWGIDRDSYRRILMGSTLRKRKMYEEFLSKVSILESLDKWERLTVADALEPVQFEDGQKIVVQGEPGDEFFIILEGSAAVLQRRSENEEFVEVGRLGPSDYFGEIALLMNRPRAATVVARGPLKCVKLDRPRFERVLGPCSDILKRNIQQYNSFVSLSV

Chain of D-AKAP2 (O43572 29-662): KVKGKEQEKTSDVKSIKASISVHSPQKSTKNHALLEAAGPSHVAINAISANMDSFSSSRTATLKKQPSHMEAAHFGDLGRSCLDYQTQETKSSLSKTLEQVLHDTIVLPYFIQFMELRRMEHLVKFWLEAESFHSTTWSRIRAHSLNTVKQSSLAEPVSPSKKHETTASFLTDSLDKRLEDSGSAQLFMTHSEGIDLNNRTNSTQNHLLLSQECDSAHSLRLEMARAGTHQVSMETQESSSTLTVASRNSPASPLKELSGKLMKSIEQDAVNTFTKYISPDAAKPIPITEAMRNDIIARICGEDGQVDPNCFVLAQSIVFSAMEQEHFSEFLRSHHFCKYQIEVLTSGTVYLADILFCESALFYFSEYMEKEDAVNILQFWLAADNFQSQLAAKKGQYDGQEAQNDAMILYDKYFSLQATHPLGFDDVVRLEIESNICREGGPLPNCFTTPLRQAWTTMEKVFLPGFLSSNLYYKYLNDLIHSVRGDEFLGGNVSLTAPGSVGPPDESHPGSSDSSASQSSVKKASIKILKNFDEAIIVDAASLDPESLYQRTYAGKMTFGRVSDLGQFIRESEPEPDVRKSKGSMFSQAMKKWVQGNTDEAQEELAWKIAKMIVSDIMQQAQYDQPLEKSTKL

Trx-NHR3(585-615) V601A (domain or fragment)
Kd [1]: 14000 nM

AML1-ETO V601A (natural protein)
fold decrease of the interaction relative to AML1-ETO (FLAG-tagged PKA (RIIα)): 2 fold

D-AKAP2 (from UniProt O43572)
Kd [2]: 2 nM
Kd (PKA (RIα) (Homo sapiens)): 48 nM

Trx-NHR3(585-615) W594A (domain or fragment)
Kd [1]: 909 nM

Trx-NHR3(585-615) (domain or fragment)
Kd [1]: 256 nM

AML1-ETO Nervy Homology Region 3 (NHR3) domain, residues A585-N654 (domain or fragment)
Kd [1]: 67 nM
stoichiometry N (NHR3 : PKA (RIIα) chains (1:2)) [1]: 0.5

Trx-NHR3(585-654) (domain or fragment)
Kd [1]: 128 nM

Trx-NHR3(585-615) V604A (domain or fragment)
Kd [1]: 383 nM
